Publication PMC8764063

Molecular target: T1, IRF3 (human (endogenous in U2OS)), Q14653
T1 chain: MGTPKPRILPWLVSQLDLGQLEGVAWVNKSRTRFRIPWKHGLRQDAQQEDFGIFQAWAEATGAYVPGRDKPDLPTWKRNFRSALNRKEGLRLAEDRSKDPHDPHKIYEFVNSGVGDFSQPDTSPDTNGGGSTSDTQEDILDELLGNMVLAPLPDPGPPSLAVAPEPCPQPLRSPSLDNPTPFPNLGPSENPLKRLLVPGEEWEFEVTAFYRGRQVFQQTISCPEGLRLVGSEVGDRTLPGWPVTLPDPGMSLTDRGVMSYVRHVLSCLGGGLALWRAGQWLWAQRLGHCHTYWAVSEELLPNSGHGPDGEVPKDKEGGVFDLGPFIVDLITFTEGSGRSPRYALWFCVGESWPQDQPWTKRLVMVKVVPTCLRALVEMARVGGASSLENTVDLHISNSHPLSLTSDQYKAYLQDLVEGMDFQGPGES
Test: native gel or EMSA; native gel and Western blot for IRF3 of lysates (TBS lysis buffer: 20 mM Tris pH 7.5, 150 mM NaCl, 0.5% NP-40) of wild-type, PARP1 D214N or PARP1 KO U2OS cells with or without poly(dA-dT) (5 ug/ml, six hours); monomer to dimer
Conditions: remark: other sources report otherwise

B1: IRF3, Q14653 1-427 (natural protein)
chain: MGTPKPRILPWLVSQLDLGQLEGVAWVNKSRTRFRIPWKHGLRQDAQQEDFGIFQAWAEATGAYVPGRDKPDLPTWKRNFRSALNRKEGLRLAEDRSKDPHDPHKIYEFVNSGVGDFSQPDTSPDTNGGGSTSDTQEDILDELLGNMVLAPLPDPGPPSLAVAPEPCPQPLRSPSLDNPTPFPNLGPSENPLKRLLVPGEEWEFEVTAFYRGRQVFQQTISCPEGLRLVGSEVGDRTLPGWPVTLPDPGMSLTDRGVMSYVRHVLSCLGGGLALWRAGQWLWAQRLGHCHTYWAVSEELLPNSGHGPDGEVPKDKEGGVFDLGPFIVDLITFTEGSGRSPRYALWFCVGESWPQDQPWTKRLVMVKVVPTCLRALVEMARVGGASSLENTVDLHISNSHPLSLTSDQYKAYLQDLVEGMDFQGPGES
For B1, the stoichiometry N was 2.
